# Like-named read-outs stand apart in the source and are kept apart here.
# Experiments:
# HD cell line L428 = assay: Chemotherapeutic drugs on L428 cells pre-cultured with or without cross-linked AC10 (3H-thymidine); format: cell-based
# Experimental: L428 cells were cultured for 24 hours in the presence or absence of 0.1 μg/ml anti-CD30 antibody, AC10, crosslinked by the addition of 20 μg/ml goat anti-mouse IgG antibodies. After the 24-hour culture period, the cells were harvested and washed with phosphate buffered saline (PBS). The cells were then plated into 96-well flat-bottom tissue culture plates at 5×10^3 cells/well and mixed with various dilutions of chemotherapeutic drugs. After a 1-hour exposure to the drugs the cells were washed twice, followed by the addition of fresh culture media. The plates were then incubated at 37° C. for 72 hours followed by a 4-hour incubation with 0.5 μCi/well ^3H-thymidine. The inhibition of growth was determined by comparing the amount of ^3H-thymidine incorporated into treated cells to the amount incorporated into untreated control cells.
# To evaluate the effect of the anti-CD30 mAb in combination with chemotherapeutic drugs, L428 cells were incubated for 24 hours in either the absence of antibody or the presence of AC10 at 0.1 μg/ml with 20 μg/ml goat anti-mouse IgG to provide crosslinking for the primary antibody. After this incubation the cells were plated into 96-well tissue culture plates at 5×10^3 cells/well in the presence of dilutions of chemotherapeutic drugs including doxorubicin, cisplatin, and etoposide (Table 3). The EC50, concentration of drug needed to inhibit the incorporation of ^3H-thymidine by 50% compared to untreated control cells, was then determined for cells treated with the drugs alone or the combinations of drug and antibody.
# HDLM-2 = assay: Proliferation assay (3H-thymidine incorporation), immobilized or cross-linked anti-CD30 mAbs; format: cell-based
# Experimental: (§1) Proliferation assays: CD30 expressing cell lines were cultured in flat-bottom 96-well plates at a density of 50,000 or 5,000 cells/well in growth media (RPMI with 10% fetal bovine serum (FBS) for cell lines L428, KM-H2 and Karpas 299, and RPMI/20% FBS for cell lines HDLM-2 and L540. The cell lines were cultured in the absence or presence of cross-linked soluble anti-CD30 mAbs or immobilized anti-CD30 mAbs, as described below.
# (§2) Antibody cross-linking in solution: To cross-link the anti-CD30 antibodies in solution, various dilutions of AC10 or HeFi-1 were titrated into 96-well flat bottom tissue culture plates in the absence or presence of 20 μg/ml polyclonal goat anti-mouse IgG antibodies. Hodgkin's disease cell lines were then added to the plates at either 50,000 or 5,000 cells/well. The plates were incubated at 37° C. for 72 hours and were labeled with ^3H-thymidine, 1 μCi/well, for the final 5 hours.
# (§3) Antibody immobilization: Antibody immobilization was obtained by coating wells with antibody in 50 mmol/L Tris buffer (pH 8.5) for 18 hours at 4° C. Prior to the addition of cells, wells were washed twice with PBS to remove unbound mAb. 50,000 or 5,000 cells in a total volume of 200 μl were added to each well. Proliferation was determined by uptake of ^3H-thymidine (0.5 μCi/well) during the final 8 hours of a 72 hour culture period.
# KM-H2 = assay: as above; format: cell-based
# Experimental: as §1, §2, §3
# L428 [1] = assay: as above; format: cell-based
# Experimental: as §1, §2, §3
# L540 [2] = assay: as above; format: cell-based
# Experimental: as §1, §2, §3
# [3] = tested on: L540cy Hodgkin's disease xenografts; assay: Disseminated L540cy Hodgkin's disease xenograft; format: in vivo, SCID mice; conditions: 1 mg/kg/injection i.p. q2d×10 from d1 (FIG. 5A)
# Experimental: (§4) Human tumor xenograft models: Female C.B-17 SCID mice, obtained from Taconic (Germantown, N.Y.) at 4–6 weeks of age, were used for all efficacy studies. To establish xenograft models of Hodgkin's disease, L540cy (HD) cells were harvested from cell culture, washed in ice cold phosphate buffered saline (PBS), resuspended in PBS, and maintained on ice until implantation. For disseminated disease models, mice were injected intravenously through the tail vein with 10^7 L540cy cells. Solid tumor xenografts were established by injecting mice subcutaneously (s.c.) with 2×10^7 L540cy cells. For therapeutic evaluation the indicated treatment doses and schedules were used.
# Administration of AC10 and HeFi-1: Disseminated L540cy tumor bearing mice received 10^7 cells through the tail vein on d0 followed by therapy initiated on d1. Treated mice received i.p. injections of either AC10 or HeFi-1 every two days for a total of 10 injections, q2d×10, at 1 mg/kg/injection.
# [4] = tested on: L540cy Hodgkin's disease xenografts; assay: Subcutaneous L540cy Hodgkin's disease xenograft; format: in vivo, SCID mice; conditions: tumors >150 mm^3 at start, 2 mg/kg twice per week, five injections (FIG. 6)
# Experimental: as §4
# For the subcutaneous L540cy model, mice were injected s.c. with 2×10^7 cells and were observed daily for solid tumor formation. When tumors were palpable, the animals were randomly distributed into groups and received either AC10 or HeFi-1 q2d×10 at 2 mg/kg/injection.
# To evaluate the efficacy of cAC10 in vivo, SCID mice were implanted subcutaneously with L540cy cells as described above. When the tumors reached an average size of greater than 150 mm^3 the mice were divided into groups that were either untreated or treated with 2 mg/kg cAC 10 twice per week for a total of five injections. The tumors in the untreated mice rapidly grew to an average size of greater than 600 mm^3 (FIG. 6).
# L540 cells = assay: Co-cultivation of L540 cells with antibodies, isolation of sCD30 from culture supernatant; format: cell-based; conditions: L540 cells co-cultivated with antibody
# Description: At the Fourth Workshop on Leukocyte Differentiation Antigens in Vienna in February 1989, monoclonal antibodies were submitted by three different laboratories and finally characterized as belonging to the CD30 group. […] However, the antibody Ber-H2 also labels a subpopulation of plasma cells (Schwarting et al., 1988, Blood 74:1678–1689) and G. Pallesen (G. Pallesen, 1990, Histopathology 16:409–413) describes, on page 411, that Ber-H2 is cross-reacting with an epitope of an unrelated antigen which is altered by formaldehyde.
# L540 [5] = conditions: co-culture with mAb; cited from earlier work
# L428 [6] = conditions: co-culture with mAb; cited from earlier work
# ALCL tumor xenografts = conditions: Tian et al., 1995; cited from earlier work
# [7] = Homo sapiens, L-428, L428, combination of drug and AC10 0.1 μg/ml cross-linked, read-out: EC50 (after incubation with AC10)
# [8] = Homo sapiens, L-428, L428, drug alone, read-out: EC50 (drug alone)
# [9] = Homo sapiens, L-428, L428, 24 hours with 0.1 μg/ml AC10 cross-linked with 20 μg/ml goat anti-mouse IgG, then 1-hour drug exposure, 72 hours, read-out: EC50, nM with AC10
# [10] = Homo sapiens, L-428, L428, no antibody, 1-hour drug exposure, 72 hours, read-out: EC50, nM without AC10
# [11] = immobilized mAb 10 μg/ml, 5,000 cells/well, 72 hours (FIG. 2)
# [12] = immobilized mAb 10 μg/ml, 50,000 cells/well, 72 hours (FIG. 1)
# [13] = soluble mAb 0.1 μg/ml cross-linked with 20 μg/ml goat anti-mouse IgG, 5×10^4 cell/well, 72 hours (FIG. 3)
# [14] = soluble mAb cross-linked with 20 μg/ml goat anti-mouse IgG, 5×10^3 cell/well, 72 hours (FIG. 4)
molecule,measurement,setting,value
N.N.[Cl][Pt][Cl] [Cisplatin],EC50,"HD cell line L428; L428, combination of drug and AC10 0.1 μg/ml cross-linked, read-out: EC50 (after incubation with AC10)",~500 nM
same,EC50,"HD cell line L428; L428, drug alone, read-out: EC50 (drug alone)",~1500 nM
same,EC50,"HD cell line L428; L428, 24 hours with 0.1 μg/ml AC10 cross-linked with 20 μg/ml goat anti-mouse IgG, then 1-hour drug exposure, 72 hours, read-out: EC50, nM with AC10",1500 nM
same,EC50,"HD cell line L428; L428, no antibody, 1-hour drug exposure, 72 hours, read-out: EC50, nM without AC10",500 nM
COc1cccc2c1C(=O)c1c(O)c3c(c(O)c1C2=O)C[C@@](O)(C(=O)CO)C[C@@H]3O[C@H]1C[C@H](N)[C@H](O)[C@H](C)O1 [Doxorubicin],EC50,HD cell line L428; [7],~9 nM
same,EC50,HD cell line L428; [8],~45 nM
same,EC50,HD cell line L428; [9],45 nM
same,EC50,HD cell line L428; [10],9 nM
COc1cc([C@@H]2c3cc4c(cc3[C@@H](O[C@@H]3O[C@@H]5CO[C@@H](C)O[C@H]5[C@H](O)[C@H]3O)[C@H]3COC(=O)[C@H]23)OCO4)cc(OC)c1O [Etoposide],EC50,HD cell line L428; [7],~600 nM
same,EC50,HD cell line L428; [8],~1500 nM
same,EC50,HD cell line L428; [9],1500 nM
same,EC50,HD cell line L428; [10],600 nM
"AC10: murine anti-CD30 monoclonal antibody prepared against human NK-like cell line YT; hybridoma deposit ATCC PTA-6679 (antibody, listed as Mus musculus, V domains shown) VH: QIQLQQSGPEVVKPGASVKISCKASGYTFTDYYITWVKQKPGQGLEWIGWIYPGSGNTKYNEKFKGKATLTVDTSSSTAFMQLSSLTSEDTAVYFCANYGNYWFAYWGQGTQVTVSA VL: DIVLTQSPASLAVSLGQRATISCKASQSVDFDGDSYMNWYQQKPGQPPKVLIYAASNLESGIPARFSGSGSGTDFTLNIHPVEEEDAATYYCQQSNEDPWTFGGGTKLEIK",cell growth (3H-thymidine incorporation),HDLM-2; [11],growth inhibition
same,cell growth (3H-thymidine incorporation),HDLM-2; [12],inhibition of cell growth
same,cell growth (3H-thymidine incorporation),HDLM-2; [13],growth inhibited
same,cell growth (3H-thymidine incorporation),HDLM-2; [14],growth inhibited
same,cell growth (3H-thymidine incorporation),KM-H2; [11],growth inhibition
same,cell growth (3H-thymidine incorporation),KM-H2; [12],inhibition of cell growth
same,cell growth (3H-thymidine incorporation),KM-H2; [13],growth inhibited
same,cell growth (3H-thymidine incorporation),"KM-H2; soluble mAb 0.11 g/ml cross-linked with 20 μg/ml goat anti-mouse IgG, 5×10^3 cell/well, 72 hours (FIG. 4)",growth inhibited
same,cell growth (3H-thymidine incorporation),L428 [1]; [11],growth inhibition
same,cell growth (3H-thymidine incorporation),L428 [1]; [12],inhibition of cell growth
same,cell growth (3H-thymidine incorporation),L428 [1]; [13],growth inhibited
same,cell growth (3H-thymidine incorporation),L428 [1]; [14],growth inhibited
same,cell growth (3H-thymidine incorporation),L540 [2]; [11],growth inhibition
same,cell growth (3H-thymidine incorporation),L540 [2]; [12],inhibition of cell growth
same,cell growth (3H-thymidine incorporation),L540 [2]; [13],growth inhibited
same,cell growth (3H-thymidine incorporation),L540 [2]; [14],growth inhibited
same,signs of disease,[3],no signs of disease
"cAC10: chimeric antibody: AC10 heavy and light chain variable regions with human gamma 1 and kappa constant regions (antibody, left off: a dimerising Fc or GST, chimeric antibody: AC10 heavy and light chain variable regions with human gamma 1 and kappa constant regions) heavy: QIQLQQSGPEVVKPGASVKISCKASGYTFTDYYITWVKQKPGQGLEWIGWIYPGSGNTKYNEKFKGKATLTVDTSSSTAFMQLSSLTSEDTAVYFCANYGNYWFAYWGQGTQVTVSA light: DIVLTQSPASLAVSLGQRATISCKASQSVDFDGDSYMNWYQQKPGQPPKVLIYAASNLESGIPARFSGSGSGTDFTLNIHPVEEEDAATYYCQQSNEDPWTFGGGTKLEIK",average tumor size,[4],remained about the same size
"HeFi-1: anti-CD30 mAb produced by immunizing mice with the L428 Hodgkin's disease cell line (antibody, V domains shown) VH: EVKLVESGGGLVQPGGSLRLSCATSGFTFSDYYMNWVRQPPGKALEWLGFIRNKANGYTTEFSASVMGRFTISRDDSQSILYLQMNTLRAEDSATYYCARDPPYGNPHYYAMDYWGQGTSVTVSS VL: DIVLTQSPASLAVSLGQRATISCRASKSVSASGYNYMHWYQQKAGQPPKLLIHLASNLESGVPARFSGSGSGTDFTLNIHPVEEEDASTYYCQHSGELPFTFGSGTKLEIK",cell growth (3H-thymidine incorporation),HDLM-2; [13],growth inhibited
same,cell growth (3H-thymidine incorporation),HDLM-2; [14],growth inhibited
same,cell growth (3H-thymidine incorporation),KM-H2; [13],growth inhibited
same,cell growth (3H-thymidine incorporation),L428 [1]; [13],growth inhibited
same,cell growth (3H-thymidine incorporation),L428 [1]; [14],growth inhibited
same,cell growth (3H-thymidine incorporation),L540 [2]; [13],growth inhibited
same,cell growth (3H-thymidine incorporation),L540 [2]; [14],growth inhibited
same,signs of disease,[3],no signs of disease
same,release of the sCD30,L540 cells,weakly enhanced
same,viability of the cell line on co-culture,L540 [5],failed to reveal any direct effect
same,viability of the cell line on co-culture,L428 [6],failed to reveal any direct effect
same,survival of SCID mice bearing ALCL tumor xenografts,ALCL tumor xenografts,prolonged survival

# — US7090843B1, “Recombinant anti-CD30 antibodies and uses thereof” (Seattle Genetics, Inc., priority 2000, dated 2006)
